# Laboratory results: US20210032331A1 (PHANES THERAPEUTICS, published 2021)
# Changes are numbered by the printed parent chain.
# T1: human LAG-3(ECD)-mFc (human, UniProt P18627 23-450)
# T1 construct: also called hLAG3-mFc; human LAG-3 extracellular domain (ECD) fused to mouse Fc; not shown: mouse Fc
# T1 sequence: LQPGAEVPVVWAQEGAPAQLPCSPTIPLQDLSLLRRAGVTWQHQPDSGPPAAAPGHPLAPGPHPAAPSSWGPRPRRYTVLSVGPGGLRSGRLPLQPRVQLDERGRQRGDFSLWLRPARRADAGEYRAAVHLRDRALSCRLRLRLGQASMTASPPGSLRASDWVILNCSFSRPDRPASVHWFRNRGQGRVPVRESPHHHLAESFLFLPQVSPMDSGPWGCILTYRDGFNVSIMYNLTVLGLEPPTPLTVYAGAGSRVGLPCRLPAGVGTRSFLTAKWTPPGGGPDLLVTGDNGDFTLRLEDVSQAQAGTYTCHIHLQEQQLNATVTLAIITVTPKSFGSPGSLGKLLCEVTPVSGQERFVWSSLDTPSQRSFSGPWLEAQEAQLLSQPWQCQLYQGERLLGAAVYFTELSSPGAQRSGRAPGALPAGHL
# B1: B3C (antibody, V domains shown)
# VH: QVQLQQPGAELLKPGASVKMSCKASGYTFTSYDIHWLKQTPGQGLEWIGAIYPENGDSSYSQKFKDKATLTADKSSNTAYIHLSSLTSEDSAVYYCARGGYYDYVWFPYWGQGTLVTVSA
# VL: DVVMTQTPLSLPVSLGDQASISCRSSQSILYSNGYTYLEWYLQKPGQSPKLLIYGVSNRFSGVPDRFSGSGSGTDFTLKISRVESEDMGVYYCFQGTHVPLTFGAGTKLELK
# notes: Chimeric: mouse VH and VL fused to constant regions of human IgG1 heavy chain and kappa light chain; also called the chimeric version of mouse mAb B3; B3 (human IgG1 heavy chain and kappa light chain chimeric)
# B2: B4C (antibody, V domains shown)
# VH: B1 VH with D66G, Y102F
# VL: B1 VL with L30V, S85A
# notes: Chimeric: mouse VH and VL fused to constant regions of human IgG1 heavy chain and kappa light chain; also called the chimeric version of mouse mAb B4; B4 (human IgG1 heavy chain and kappa light chain chimeric)
# B3: B1C (antibody, V domains shown)
# VH: DVQLQESGPGLVKPSQSLSLTCTVTGYSITSDYAWNWIRQFPGNKLEWMGYIDYSGITSYNPSLKSRISITRDTSKNQFFLQLNSVTTEDTATYYCAREDHYDLAWFAYWGQGTLVTVSA
# VL: DIQMTQTTSSLSASLGDRVTISCRASQDISNYLNWYQQKPDGTVKLLIYYTSRLHSGVPSRFSGSGSGTDYSLTISNLEPEDIATYYCHQYSNRPPTFGGGTKLEIK
# notes: Chimeric: mouse VH and VL fused to constant regions of human IgG1 heavy chain and kappa light chain; also called the chimeric version of mouse mAb B1
# B4: B9C (antibody, V domains shown)
# VH: EVQLRQSGPVLVKPGASVKMSCKASGYTFTGYYMNWVKQSHGKSLEWLAVINPYNGDTAYNRKFKGRATLTVDKSSSTAYMELNRLTSEDSAVYYCVRDDGYHVRYFDVWGTGTTVTVSS
# VL: DIQMTQSPSSLSASLGERVSLTCRASQDISDSLCWLQQKPDGTIKRLIYSTSTLDSGVPKRFSGSRSGSDYSLTISSLESEDFADYYCLQYASSPPTFGGGTKLEIK
# notes: Chimeric: mouse VH and VL fused to constant regions of human IgG1 heavy chain and kappa light chain; also called the chimeric version of mouse mAb B9
# B5: B11C (antibody, V domains shown)
# VH: EVQLQQSGPVLVRPGASVKMSCKASGYTFTNYYMNWVKQSHGKSLEWIGVINPYNGDIAYSQKFKGKATLTVDKSSSTAYMELKSLTSEDSAVYYCARDDGYYVYYFDCWGQGTTLTVSS
# VL: B4 VL with S30G, D31G, C34N, Y91N, S93N
# notes: Chimeric: mouse VH and VL fused to constant regions of human IgG1 heavy chain and kappa light chain; also called the chimeric version of mouse mAb B11
# B6: B7C (antibody, V domains shown)
# VH: EFQLQQSGPELVKPGASVKISCKASGYSFSDYNLNWVKQSNGKTLEWIGLINLDSAATVYNQKFKGKATLTIDQSSTTAYMQLNSLTSDDSAVYYCASYDYWGQGTTLTVSS
# VL: DIQMTQSPSSLSASLGERVSLSCRASQDISHYLNWFQQKPDGTFKRLIYETSTLDFGVPKRFSGSRSGSDYSLTIGSLESEDFADYYCLQYATYPLTFGAGTKLELK
# notes: Chimeric: mouse VH and VL fused to constant regions of human IgG1 heavy chain and kappa light chain; also called the chimeric version of mouse mAb B7
# B7: B10C (antibody, V domains shown)
# VH: EFQLQQSGPELVKPGASVKISCKASGYSFTDYNLNWVKESNGKSLEWIGLITLDYGTTIYNQKFKGKATLTVDQSSSIAYMQLNSLTSDDSAVYYCACYDYWGQGTTLTVSS
# VL: B6 VL with S22T, H31N, E50A, G76S, T93S
# notes: Chimeric: mouse VH and VL fused to constant regions of human IgG1 heavy chain and kappa light chain; also called the chimeric version of mouse mAb B10
# B8: B15 (antibody, V domains shown)
# VH: EVQLQQSGAELVRPGASVKLSCTASGFNIKDDYMFWVKQRPEQGLEWIGWIDPENGDTEYASKFQGKATITADTSSNTAYLQLSSLTSEDTAVYYCTLYAYWGQGTLVTVSA
# VL: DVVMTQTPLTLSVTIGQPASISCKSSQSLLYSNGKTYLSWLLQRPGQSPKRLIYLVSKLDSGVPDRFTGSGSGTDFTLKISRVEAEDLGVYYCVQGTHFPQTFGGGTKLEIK
# notes: Mouse mAb from hybridoma; also called mouse anti-LAG-3 mAb B15
# B9: B5(H3L2) (antibody, V domains shown)
# VH: QVQLVQSGAVVKKPGASVKMSCKASGYTFTGYYMNWMRQAPGQSLEWLAVINPYNGDTAYNRKFKGRATLTVDKSTSTAYMELSSLRSEDTAVYYCARDDGYHVRFFDVWGQGTTVTVSS
# VL: DIQMTQSPSSLSASVGDRVTITCRSSQDISDYLSWLQQKPGGAIKSLIYSTSTLDSGVPSRFSGSRSGTDFTLTISSLQPEDFATYYCLQYASSPPTFGGGTKVEIK
# notes: Humanized VH and VL fused to constant regions of human IgG4 heavy chain and kappa light chain; also called humanized B5 with B5/H3 heavy chain and B5/L2 light chain
# B10: B5(H3L3) (antibody, V domains shown)
# VH: B9 VH
# VL: B9 VL with F71Y
# notes: Humanized VH and VL fused to constant regions of human IgG4 heavy chain and kappa light chain; also called humanized B5 with B5/H3 heavy chain and B5/L3 light chain
# B11: B5(H1L4) (antibody, V domains shown)
# VH: B9 VH with V10E, M37V, A49G, A68V, A79V
# VL: B9 VL with S46R, S60K, T69S, F71Y
# notes: Humanized VH and VL fused to constant regions of human IgG4 heavy chain and kappa light chain; also called B5(HIL4); humanized B5 with B5/H1 heavy chain and B5/L4 light chain
# B12: B5(H4L1) (antibody, V domains shown)
# VH: B9 VH with V5R, P41H, A97V
# VL: B9 VL with I44P
# notes: Humanized VH and VL fused to constant regions of human IgG4 heavy chain and kappa light chain; also called humanized B5 with B5/H4 heavy chain and B5/L1 light chain
# B13: B5(H2L2) (antibody, V domains shown)
# VH: B9 VH with V10E, A49G, A68V
# VL: B9 VL
# notes: Humanized VH and VL fused to constant regions of human IgG4 heavy chain and kappa light chain; also called humanized B5 with B5/H2 heavy chain and B5/L2 light chain
# B14: B5(H3L1) (antibody, V domains shown)
# VH: B9 VH
# VL: B9 VL with I44P
# notes: Humanized VH and VL fused to constant regions of human IgG4 heavy chain and kappa light chain; also called humanized B5 with B5/H3 heavy chain and B5/L1 light chain
# B15: B7(H4L5) (antibody, V domains shown)
# VH: EVQLVQSGAEVKKPGASVKVSCKASGYTFSDYNLNWVRQAPGQTLEWMGLINLDSAATVYNQKFKGKATMTRDQSTSTAYMELSSLRSEDTAVYYCASYDYWGQGTLVTVSS
# VL: DIQMTQSPSSLSASVGDRVTITCRASQDISHYLNWFQQKPGKAPKLLIYETSTLDFGVPSRFSGSGSGTDFTFTISSLQPEDIATYYCLQYATYPLTFGGGTKVEIK
# notes: Humanized VH and VL fused to constant regions of human IgG4 heavy chain and kappa light chain; also called humanized B7 with B7/H4 heavy chain and B7/L5 light chain
# B16: B7(H2L8) (antibody, V domains shown)
# VH: B15 VH with K67R, A68V, Q74T, A79V
# VL: B15 VL with L46R
# notes: Humanized VH and VL fused to constant regions of human IgG4 heavy chain and kappa light chain; also called humanized B7 with B7/H2 heavy chain and B7/L8 light chain
# B17: B7(H1L8) (antibody, V domains shown)
# VH: B15 VH with T44G, K67R, A68V, Q74T, A79V
# VL: B15 VL with L46R
# notes: Humanized VH and VL fused to constant regions of human IgG4 heavy chain and kappa light chain; also called humanized B7 with B7/H1 heavy chain and B7/L8 light chain
# B18: B7(H3L5) (antibody, V domains shown)
# VH: B15 VH with T44G, Q74T, A79V
# VL: B15 VL
# notes: Humanized VH and VL fused to constant regions of human IgG4 heavy chain and kappa light chain; also called humanized B7 with B7/H3 heavy chain and B7/L5 light chain
# B19: B7(H5L8) (antibody, V domains shown)
# VH: B15 VH with T28S, R72I
# VL: B15 VL with L46R
# notes: Humanized VH and VL fused to constant regions of human IgG4 heavy chain and kappa light chain; also called humanized B7 with B7/H5 heavy chain and B7/L8 light chain
# B20: B7(H2L5) (antibody, V domains shown)
# VH: B15 VH with K67R, A68V, Q74T, A79V
# VL: B15 VL
# notes: Humanized VH and VL fused to constant regions of human IgG4 heavy chain and kappa light chain; also called humanized B7 with B7/H2 heavy chain and B7/L5 light chain
# B21: B7(H4L8) (antibody, V domains shown)
# VH: B15 VH
# VL: B15 VL with L46R
# notes: Humanized VH and VL fused to constant regions of human IgG4 heavy chain and kappa light chain; also called humanized B7 with B7/H4 heavy chain and B7/L8 light chain
# B22: B7(H5L5) (antibody, V domains shown)
# VH: B15 VH with T28S, R72I
# VL: B15 VL
# notes: Humanized VH and VL fused to constant regions of human IgG4 heavy chain and kappa light chain; also called humanized B7 with B7/H5 heavy chain and B7/L5 light chain
# B23: B7(H3L8) (antibody, V domains shown)
# VH: B15 VH with T44G, Q74T, A79V
# VL: B15 VL with L46R
# notes: Humanized VH and VL fused to constant regions of human IgG4 heavy chain and kappa light chain; also called humanized B7 with B7/H3 heavy chain and B7/L8 light chain
# B24: B7(H6L8) (antibody, V domains shown)
# VH: B15 VH with V2F, T28S, R72I
# VL: B15 VL with L46R
# notes: Humanized VH and VL fused to constant regions of human IgG4 heavy chain and kappa light chain; also called humanized B7 with B7/H6 heavy chain and B7/L8 light chain
# B25: B7(H1L5) (antibody, V domains shown)
# VH: B15 VH with T44G, K67R, A68V, Q74T, A79V
# VL: B15 VL
# notes: Humanized VH and VL fused to constant regions of human IgG4 heavy chain and kappa light chain; also called humanized B7 with B7/H1 heavy chain and B7/L5 light chain
# B26: B7(H6L5) (antibody, V domains shown)
# VH: B15 VH with V2F, T28S, R72I
# VL: B15 VL
# notes: Humanized VH and VL fused to constant regions of human IgG4 heavy chain and kappa light chain; also called humanized B7 with B7/H6 heavy chain and B7/L5 light chain
# Biological target: T1, human LAG-3(ECD)-mFc
# Experiment: FACS blocking assay: mAb preincubated with LAG-3(ECD)-mFc (1 µg/mL), blocked ligand MHC class II on Daudi cells, PE anti-mouse Fc
# Description: FIGS. 4A-4D show inhibition of human LAG-3 binding to MHC class II molecules by select anti-LAG-3 mAbs. An in vitro binding assay was performed using recombinant LAG-3(ECD)-mFc and Daudi cells which express human MHC class II molecules. […] The binding of LAG-3(ECD)-mFc to Daudi cells in the presence of anti-LAG-3 mAbs or a control mAb was analyzed by FACS.
# (§1) Human Daudi cells were cultured in RPMI+10% FBS. Human LAG-3(ECD)-mFc protein (human LAG-3 ECD fused to mouse Fc) at 1 μg/ml final concentration was incubated with purified mouse, humanized, or chimeric anti-LAG-3 mAbs at various concentrations for 15 minutes at 4° C. The mixture was then added to 100,000 human Daudi cells in a 96-well round bottom plate, mixed and incubated for 15 minutes on ice. Cells were then centrifuged at 1,000 rpm for 5 minutes and washed with FACS buffer (PBS supplemented with 5% BSA) three times. The cells were then incubated with PE-conjugated goat anti-mouse Fc polyclonal antibodies on ice for 15 minutes, washed with FACS buffer three times and then resuspended in FACS buffer containing 0.1 μg/ml PI (propidine iodine) for live/dead cell gating. Cells were then run through the FACS Caliber instrument and the data were analyzed by the Flowjo software. Results of the inhibition of LAG-3 binding to Daudi cells by chimeric mAbs B1C, B3C, B4C, BSC, B9C, and B11C are shown in FIG. 4B.
IC50 (read off the curve),binding result,Binder
~0.4 mg/L,,B1
~0.4 mg/L,,B2
~0.4 mg/L,,B3
~0.06 mg/L,,B4
~0.1 mg/L,,B5
~0.3 mg/L,,B6
~0.3 mg/L,,B7
,binds,B8

# Biological target: T1, human LAG-3(ECD)-mFc
# Experiment: FACS competition: mAb preincubated with human LAG-3(ECD)-mFc (1 ug/ml); binding to MHC class II on Daudi cells detected with anti-mouse Fc-PE
# Description: as §1
# The mouse anti-hLAG-3 mAbs B5 and B7 were humanized to reduce the potential of immunogenicity when used in human patients. The CDRs in both the heavy and light chains of the mouse mAb were grafted into human framework that have the highest possibility of maintaining the proper structure required for antigen binding. Backmutations from human reside to mouse residue were designed when necessary. The sequences of the humanized VH and VL regions are shown in Table 11 and Table 12, respectively. The humanized VH and VL regions were fused to the constant regions of human IgG4 heavy chain and kappa light chain, respectively, to generate humanized mAbs. Constructs corresponding to the mAb sequences were used for transient transfection in 293E cells. Purified mAbs were analyzed for their ability to inhibit hLAG-3 binding to MHC class II molecules on Daudi cells.
row,IC50,Binder
1,2.85 nM,B9
2,2.91 nM,B10
3,0.98 nM,B11
4,5.32 nM,B12
5,1.59 nM,B13
6,6.77 nM,B14
7,1.35 nM,B15
8,0.74 nM,B16
9,0.9 nM,B17
10,4.18 nM,B18
11,0.72 nM,B19
12,1.59 nM,B20
13,0.7 nM,B21
14,0.28 nM,B22
15,0.66 nM,B23
16,1.19 nM,B24
17,1.59 nM,B25
18,0.78 nM,B26
